According to patent publication US20260193348A1 (ANTENGENE BIOLOGICS, published 2026):

How the values were obtained:
[1] = molecular target: T1, CD3 on T cells / Jurkat cells (human, UniProt P07766 23-207; P04234 22-171; P09693 23-182); assay: FACS on Jurkat cells
T1 construct: whole, on cells; Native CD3 complex on CD3+ T cells isolated from normal donors or on Jurkat cells; also called human CD3; CD3+ T cells

[2] = molecular target: T2, GPRC5D on multiple myeloma cells (human, UniProt Q9NZD1 1-345); assay: FACS on MM.1S cells
T2 construct: whole, on cells; Endogenous GPRC5D on multiple myeloma cell lines; also called G-protein coupled receptor family C group 5 member D; MM.1S, MOLP-8, L363, RPMI8226 cells

CD3 on Jurkat cells = molecular target: T3, CD3 on Jurkat cells (UniProt P07766 23-207; P04234 22-171; P09693 23-182); assay: FACS on Jurkat cells
T3 construct: whole, on cells; On the cell, CD3 stands in the TCR-CD3 complex; also called cluster of differentiation 3
Method: The binding affinities of the generated humanized Fab-scFv-Fab bispecific antibodies were determined by FACS analysis. […] (a) Jurkat cells were washed by Staining Buffer (PBS+1% BSA) in round bottom 96-well plate. [0833] (b) Antibody dilutions and cells were added to each well, incubated at 4 degrees for 1 hour. [0834] (c) Cells were spined down at 300 g for 3 minutes, and the supernatants were discarded. [0835] (d) Cells were washed with Staining Buffer. […] (e) Step (d) was repeated and the cells were incubated for 0.5 hours at 4 degrees with secondary antibody in Staining Buffer. [0837] (f) After incubation, step (d)-(e) were repeated. […] (g) Staining Buffer was added and fluorescence signals were recorded by flow cytometry.
The binding affinities of the generated humanized Fab-scFv-Fab bispecific antibodies were determined by FACS analysis. The protocol for FACS analysis is identical to that described in Example 3.2, except that different test antibodies were used.

GPRC5D on MM.1S cells [3] = molecular target: T4, GPRC5D on MM.1S cells (human, UniProt Q9NZD1 1-345); assay: cell-based or functional assay
GPRC5D on MM.1S cells [4] = molecular target: T4, GPRC5D on MM.1S cells; assay: cell-based or functional assay; remark: listed apart in the source

T2 sequence (Q9NZD1 whole entry): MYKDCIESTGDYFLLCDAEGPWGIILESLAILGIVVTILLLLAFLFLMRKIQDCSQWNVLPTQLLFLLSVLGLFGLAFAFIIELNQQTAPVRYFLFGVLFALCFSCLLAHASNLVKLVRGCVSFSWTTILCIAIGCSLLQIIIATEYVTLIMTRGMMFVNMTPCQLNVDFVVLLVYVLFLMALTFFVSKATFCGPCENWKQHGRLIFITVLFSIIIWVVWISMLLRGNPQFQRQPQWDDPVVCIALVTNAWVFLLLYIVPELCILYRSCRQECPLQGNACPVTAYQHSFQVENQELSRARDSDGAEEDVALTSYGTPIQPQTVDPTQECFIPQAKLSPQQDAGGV
T4 sequence (Q9NZD1 whole entry): as above
T1 sequence (P07766 23-207, chain 1 of 3): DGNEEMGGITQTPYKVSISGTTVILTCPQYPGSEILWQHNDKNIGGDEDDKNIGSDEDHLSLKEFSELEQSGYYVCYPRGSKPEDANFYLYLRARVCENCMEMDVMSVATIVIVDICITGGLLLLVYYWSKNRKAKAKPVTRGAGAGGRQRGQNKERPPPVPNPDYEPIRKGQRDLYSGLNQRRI
T1 sequence (P04234 22-171, chain 2 of 3): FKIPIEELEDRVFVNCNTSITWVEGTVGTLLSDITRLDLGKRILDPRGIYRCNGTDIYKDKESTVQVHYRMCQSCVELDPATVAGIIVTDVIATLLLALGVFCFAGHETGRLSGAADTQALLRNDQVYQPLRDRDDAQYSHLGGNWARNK
T1 sequence (P09693 23-182, chain 3 of 3): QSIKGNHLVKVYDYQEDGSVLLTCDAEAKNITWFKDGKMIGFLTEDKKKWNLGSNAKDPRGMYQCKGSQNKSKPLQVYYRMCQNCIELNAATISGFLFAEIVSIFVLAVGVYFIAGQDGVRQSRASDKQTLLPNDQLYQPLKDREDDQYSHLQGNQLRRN
T3 sequence (P07766 23-207, chain 1 of 3): as the sequence (P07766 23-207, chain 1 of 3) above
T3 sequence (P04234 22-171, chain 2 of 3): as the sequence (P04234 22-171, chain 2 of 3) above
T3 sequence (P09693 23-182, chain 3 of 3): as the sequence (P09693 23-182, chain 3 of 3) above

binding result [1]	binding result [2]	Binder	also measured
binds	binds	Bis-108+147-R35K.L (bispecific antibody, V domains shown, Fab-scFv-Fab (2+1): first VH/VL = anti-GPRC5D Fabs, second VH/VL = anti-CD3 scFv) VH 1: EVQLVQSGAEVKKPGASVKVSCKASGYTFTSYVIHWVRQAPGQGLEWMGYFNPYNDGTKYNEEFKGRVTLTSDKSTSTAYMELRSLRSDDTAVYYCARGGVRRYFDVWGQGTTVTVSS VL 1: DIQMTQSPSSLSASVGDRVTITCRASQDIGSNLNWLQQKPGKAIKRLIYATFGLDSGVPSRFSGSRSGTDFTLTISSLQPEDFATYYCQQYASFPYTFGGGTKVEIK VH 2: EVQLVQSGAEVKKPGSSVKVSCKASGYTFTSYWMHWVRQAPGQCLEWMGNINPSSGATNYNEKFKSRVTLTVDKSTSTAYMELSSLRSEDTAVYYCARDRSSQYYFDYWGQGTTVTVSS VL 2: DIVMTQSPDSLAVSLGERATINCKSSQSLLNSRSKKNYLAWYQQKPGQPPKLLIYWASTRESGVPDRFSGSGSGTDFTLTISSLQAEDVAVYYCTQSYTLRTFGCGTKVEIK	
binds	binds	Bis-108+147-S54R.H (bispecific antibody, V domains shown, Fab-scFv-Fab (2+1): first VH/VL = anti-GPRC5D Fabs, second VH/VL = anti-CD3 scFv) VH 1: EVQLVQSGAEVKKPGASVKVSCKASGYTFTSYVIHWVRQAPGQGLEWMGYFNPYNDGTKYNEEFKGRVTLTSDKSTSTAYMELRSLRSDDTAVYYCARGGVRRYFDVWGQGTTVTVSS VL 1: DIQMTQSPSSLSASVGDRVTITCRASQDIGSNLNWLQQKPGKAIKRLIYATFGLDSGVPSRFSGSRSGTDFTLTISSLQPEDFATYYCQQYASFPYTFGGGTKVEIK VH 2: EVQLVQSGAEVKKPGSSVKVSCKASGYTFTSYWMHWVRQAPGQCLEWMGNINPRSGATNYNEKFKSRVTLTVDKSTSTAYMELSSLRSEDTAVYYCARDRSSQYYFDYWGQGTTVTVSS VL 2: DIVMTQSPDSLAVSLGERATINCKSSQSLLNSRSRKNYLAWYQQKPGQPPKLLIYWASTRESGVPDRFSGSGSGTDFTLTISSLQAEDVAVYYCTQSYTLRTFGCGTKVEIK	
binds	binds	Bis-108+147-R100Q.H (bispecific antibody, V domains shown, Fab-scFv-Fab (2+1): first VH/VL = anti-GPRC5D Fabs, second VH/VL = anti-CD3 scFv) VH 1: EVQLVQSGAEVKKPGASVKVSCKASGYTFTSYVIHWVRQAPGQGLEWMGYFNPYNDGTKYNEEFKGRVTLTSDKSTSTAYMELRSLRSDDTAVYYCARGGVRRYFDVWGQGTTVTVSS VL 1: DIQMTQSPSSLSASVGDRVTITCRASQDIGSNLNWLQQKPGKAIKRLIYATFGLDSGVPSRFSGSRSGTDFTLTISSLQPEDFATYYCQQYASFPYTFGGGTKVEIK VH 2: EVQLVQSGAEVKKPGSSVKVSCKASGYTFTSYWMHWVRQAPGQCLEWMGNINPSSGATNYNEKFKSRVTLTVDKSTSTAYMELSSLRSEDTAVYYCARDQSSQYYFDYWGQGTTVTVSS VL 2: DIVMTQSPDSLAVSLGERATINCKSSQSLLNSRSRKNYLAWYQQKPGQPPKLLIYWASTRESGVPDRFSGSGSGTDFTLTISSLQAEDVAVYYCTQSYTLRTFGCGTKVEIK	
binds	binds	Bis-108+147-S102Q.H (bispecific antibody, V domains shown, Fab-scFv-Fab (2+1): first VH/VL = anti-GPRC5D Fabs, second VH/VL = anti-CD3 scFv) VH 1: EVQLVQSGAEVKKPGASVKVSCKASGYTFTSYVIHWVRQAPGQGLEWMGYFNPYNDGTKYNEEFKGRVTLTSDKSTSTAYMELRSLRSDDTAVYYCARGGVRRYFDVWGQGTTVTVSS VL 1: DIQMTQSPSSLSASVGDRVTITCRASQDIGSNLNWLQQKPGKAIKRLIYATFGLDSGVPSRFSGSRSGTDFTLTISSLQPEDFATYYCQQYASFPYTFGGGTKVEIK VH 2: EVQLVQSGAEVKKPGSSVKVSCKASGYTFTSYWMHWVRQAPGQCLEWMGNINPSSGATNYNEKFKSRVTLTVDKSTSTAYMELSSLRSEDTAVYYCARDRSQQYYFDYWGQGTTVTVSS VL 2: DIVMTQSPDSLAVSLGERATINCKSSQSLLNSRSRKNYLAWYQQKPGQPPKLLIYWASTRESGVPDRFSGSGSGTDFTLTISSLQAEDVAVYYCTQSYTLRTFGCGTKVEIK	
binds	binds	Bis-108+147-S31R.H (bispecific antibody, V domains shown, Fab-scFv-Fab (2+1): first VH/VL = anti-GPRC5D Fabs, second VH/VL = anti-CD3 scFv) VH 1: EVQLVQSGAEVKKPGASVKVSCKASGYTFTSYVIHWVRQAPGQGLEWMGYFNPYNDGTKYNEEFKGRVTLTSDKSTSTAYMELRSLRSDDTAVYYCARGGVRRYFDVWGQGTTVTVSS VL 1: DIQMTQSPSSLSASVGDRVTITCRASQDIGSNLNWLQQKPGKAIKRLIYATFGLDSGVPSRFSGSRSGTDFTLTISSLQPEDFATYYCQQYASFPYTFGGGTKVEIK VH 2: EVQLVQSGAEVKKPGSSVKVSCKASGYTFTRYWMHWVRQAPGQCLEWMGNINPSSGATNYNEKFKSRVTLTVDKSTSTAYMELSSLRSEDTAVYYCARDRSSQYYFDYWGQGTTVTVSS VL 2: DIVMTQSPDSLAVSLGERATINCKSSQSLLNSRSRKNYLAWYQQKPGQPPKLLIYWASTRESGVPDRFSGSGSGTDFTLTISSLQAEDVAVYYCTQSYTLRTFGCGTKVEIK	
binds	binds	Bis-108+147-R35S.L (bispecific antibody, V domains shown, Fab-scFv-Fab (2+1): first VH/VL = anti-GPRC5D Fabs, second VH/VL = anti-CD3 scFv) VH 1: EVQLVQSGAEVKKPGASVKVSCKASGYTFTSYVIHWVRQAPGQGLEWMGYFNPYNDGTKYNEEFKGRVTLTSDKSTSTAYMELRSLRSDDTAVYYCARGGVRRYFDVWGQGTTVTVSS VL 1: DIQMTQSPSSLSASVGDRVTITCRASQDIGSNLNWLQQKPGKAIKRLIYATFGLDSGVPSRFSGSRSGTDFTLTISSLQPEDFATYYCQQYASFPYTFGGGTKVEIK VH 2: EVQLVQSGAEVKKPGSSVKVSCKASGYTFTSYWMHWVRQAPGQCLEWMGNINPSSGATNYNEKFKSRVTLTVDKSTSTAYMELSSLRSEDTAVYYCARDRSSQYYFDYWGQGTTVTVSS VL 2: DIVMTQSPDSLAVSLGERATINCKSSQSLLNSRSSKNYLAWYQQKPGQPPKLLIYWASTRESGVPDRFSGSGSGTDFTLTISSLQAEDVAVYYCTQSYTLRTFGCGTKVEIK	
binds	binds	Bis-108+147-S32R.L (bispecific antibody, V domains shown, Fab-scFv-Fab (2+1): first VH/VL = anti-GPRC5D Fabs, second VH/VL = anti-CD3 scFv) VH 1: EVQLVQSGAEVKKPGASVKVSCKASGYTFTSYVIHWVRQAPGQGLEWMGYFNPYNDGTKYNEEFKGRVTLTSDKSTSTAYMELRSLRSDDTAVYYCARGGVRRYFDVWGQGTTVTVSS VL 1: DIQMTQSPSSLSASVGDRVTITCRASQDIGSNLNWLQQKPGKAIKRLIYATFGLDSGVPSRFSGSRSGTDFTLTISSLQPEDFATYYCQQYASFPYTFGGGTKVEIK VH 2: EVQLVQSGAEVKKPGSSVKVSCKASGYTFTSYWMHWVRQAPGQCLEWMGNINPSSGATNYNEKFKSRVTLTVDKSTSTAYMELSSLRSEDTAVYYCARDRSSQYYFDYWGQGTTVTVSS VL 2: DIVMTQSPDSLAVSLGERATINCKSSQSLLNRRSRKNYLAWYQQKPGQPPKLLIYWASTRESGVPDRFSGSGSGTDFTLTISSLQAEDVAVYYCTQSYTLRTFGCGTKVEIK	
		Bis-40E9-L2H3-D56G.H (bispecific antibody, Fab-scFv-Fab format with LALA mutations) heavy 1: not shown heavy 2: EVQLVQSGAEVKKPGASVKVSCKASGYTFTSYVIHWVRQAPGQGLEWMGYFNPYNDGTKYNEEFKGRVTLTSDKSTSTAYMELRSLRSDDTAVYYCARGGVRRYFDVWGQGTTVTVSSASTKGPSVFPLAPSSKSTSGGTAALGCLVKDYFPEPVTVSWNSGALTSGVHTFPAVLQSSGLYSLSSVVTVPSSSLGTQTYICNVNHKPSNTKVDKKVEPKSCGGGGSGGGGSEVQLVQSGAEVKKPGSSVKVSCKASGYTFSSYVIHWVRQAPGQCLEWMGYINPYNGVIKYNEKFKGRVTLTSDKSTSTAYMELSSLRSEDTAVYYCARDSYYSYDGFAYWGQGTLVTVSSGGGGSGGGGSGGGGSGGGGSEIVLTQSPDFQSVTPKEKVTITCSASSSVSYMHWYQQKPDQSPKRLIYDTSKLASGVPSRFSGSGSGTDFTLTINSLEAEDAATYYCQQWSSNPPTFGCGTKVEIKGGGGSGGGGSDKTHTCPPCPAPEAAGGPSVFLFPPKPKDTLMISRTPEVTCVVVDVSHEDPEVKFNWYVDGVEVHNAKTKPREEQYNSTYRVVSVLTVLHQDWLNGKEYKCKVSNKALPAPIEKTISKAKGQPREPQVCTLPPSREEMTKNQVSLSCAVKGFYPSDIAVEWESNGQPENNYKTTPPVLDSDGSFFLVSKLTVDKSRWQQGNVFSCSVMHEALHNHYTQKSLSLSPGK light: DIQMTQSPSSLSASVGDRVTITCRASQDIGSNLNWLQQKPGKAIKRLIYATFGLDSGVPSRFSGSRSGTDFTLTISSLQPEDFATYYCQQYASFPYTFGGGTKVEIKRTVAAPSVFIFPPSDEQLKSGTASVVCLLNNFYPREAKVQWKVDNALQSGNSQESVTEQDSKDSTYSLSSTLTLSKADYEKHKVYACEVTHQGLSSPVTKSFNRGEC	Ratio of EC50 (relative to ATG-Bis-40E9) (CD3 on Jurkat cells): 2.41 ratio; Ratio of Top MFI (relative to ATG-Bis-40E9) (CD3 on Jurkat cells): 0.55 ratio; Ratio of EC50 (relative to ATG-Bis-40E9), luciferase assay on MM.1S (GPRC5D on MM.1S cells [3]): 0.81 ratio; Ratio of Top RLU (relative to ATG-Bis-40E9), luciferase assay on MM.1S (GPRC5D on MM.1S cells [3]): 1.01 ratio; Ratio of IC50 (relative to ATG-Bis-40E9), MM.1S cytotoxicity (GPRC5D on MM.1S cells [4]): 0.99 ratio; Ratio of Top cytotoxicity (relative to ATG-Bis-40E9), MM.1S cytotoxicity (GPRC5D on MM.1S cells [4]): 1 ratio
